Target: mMBP-fused VERL-Fb (fragment of vitelline envelope receptor for lysin)
Assay: crystal structure; crystals of the mMBP-VERL-Fb fusion, space group P2(1), 2.9 Å, molecular replacement with MBP; refinement ongoing

Chain of mMBP-fused VERL-Fb (fragment of vitelline envelope receptor for lysin) (Q8WR62 25-3722): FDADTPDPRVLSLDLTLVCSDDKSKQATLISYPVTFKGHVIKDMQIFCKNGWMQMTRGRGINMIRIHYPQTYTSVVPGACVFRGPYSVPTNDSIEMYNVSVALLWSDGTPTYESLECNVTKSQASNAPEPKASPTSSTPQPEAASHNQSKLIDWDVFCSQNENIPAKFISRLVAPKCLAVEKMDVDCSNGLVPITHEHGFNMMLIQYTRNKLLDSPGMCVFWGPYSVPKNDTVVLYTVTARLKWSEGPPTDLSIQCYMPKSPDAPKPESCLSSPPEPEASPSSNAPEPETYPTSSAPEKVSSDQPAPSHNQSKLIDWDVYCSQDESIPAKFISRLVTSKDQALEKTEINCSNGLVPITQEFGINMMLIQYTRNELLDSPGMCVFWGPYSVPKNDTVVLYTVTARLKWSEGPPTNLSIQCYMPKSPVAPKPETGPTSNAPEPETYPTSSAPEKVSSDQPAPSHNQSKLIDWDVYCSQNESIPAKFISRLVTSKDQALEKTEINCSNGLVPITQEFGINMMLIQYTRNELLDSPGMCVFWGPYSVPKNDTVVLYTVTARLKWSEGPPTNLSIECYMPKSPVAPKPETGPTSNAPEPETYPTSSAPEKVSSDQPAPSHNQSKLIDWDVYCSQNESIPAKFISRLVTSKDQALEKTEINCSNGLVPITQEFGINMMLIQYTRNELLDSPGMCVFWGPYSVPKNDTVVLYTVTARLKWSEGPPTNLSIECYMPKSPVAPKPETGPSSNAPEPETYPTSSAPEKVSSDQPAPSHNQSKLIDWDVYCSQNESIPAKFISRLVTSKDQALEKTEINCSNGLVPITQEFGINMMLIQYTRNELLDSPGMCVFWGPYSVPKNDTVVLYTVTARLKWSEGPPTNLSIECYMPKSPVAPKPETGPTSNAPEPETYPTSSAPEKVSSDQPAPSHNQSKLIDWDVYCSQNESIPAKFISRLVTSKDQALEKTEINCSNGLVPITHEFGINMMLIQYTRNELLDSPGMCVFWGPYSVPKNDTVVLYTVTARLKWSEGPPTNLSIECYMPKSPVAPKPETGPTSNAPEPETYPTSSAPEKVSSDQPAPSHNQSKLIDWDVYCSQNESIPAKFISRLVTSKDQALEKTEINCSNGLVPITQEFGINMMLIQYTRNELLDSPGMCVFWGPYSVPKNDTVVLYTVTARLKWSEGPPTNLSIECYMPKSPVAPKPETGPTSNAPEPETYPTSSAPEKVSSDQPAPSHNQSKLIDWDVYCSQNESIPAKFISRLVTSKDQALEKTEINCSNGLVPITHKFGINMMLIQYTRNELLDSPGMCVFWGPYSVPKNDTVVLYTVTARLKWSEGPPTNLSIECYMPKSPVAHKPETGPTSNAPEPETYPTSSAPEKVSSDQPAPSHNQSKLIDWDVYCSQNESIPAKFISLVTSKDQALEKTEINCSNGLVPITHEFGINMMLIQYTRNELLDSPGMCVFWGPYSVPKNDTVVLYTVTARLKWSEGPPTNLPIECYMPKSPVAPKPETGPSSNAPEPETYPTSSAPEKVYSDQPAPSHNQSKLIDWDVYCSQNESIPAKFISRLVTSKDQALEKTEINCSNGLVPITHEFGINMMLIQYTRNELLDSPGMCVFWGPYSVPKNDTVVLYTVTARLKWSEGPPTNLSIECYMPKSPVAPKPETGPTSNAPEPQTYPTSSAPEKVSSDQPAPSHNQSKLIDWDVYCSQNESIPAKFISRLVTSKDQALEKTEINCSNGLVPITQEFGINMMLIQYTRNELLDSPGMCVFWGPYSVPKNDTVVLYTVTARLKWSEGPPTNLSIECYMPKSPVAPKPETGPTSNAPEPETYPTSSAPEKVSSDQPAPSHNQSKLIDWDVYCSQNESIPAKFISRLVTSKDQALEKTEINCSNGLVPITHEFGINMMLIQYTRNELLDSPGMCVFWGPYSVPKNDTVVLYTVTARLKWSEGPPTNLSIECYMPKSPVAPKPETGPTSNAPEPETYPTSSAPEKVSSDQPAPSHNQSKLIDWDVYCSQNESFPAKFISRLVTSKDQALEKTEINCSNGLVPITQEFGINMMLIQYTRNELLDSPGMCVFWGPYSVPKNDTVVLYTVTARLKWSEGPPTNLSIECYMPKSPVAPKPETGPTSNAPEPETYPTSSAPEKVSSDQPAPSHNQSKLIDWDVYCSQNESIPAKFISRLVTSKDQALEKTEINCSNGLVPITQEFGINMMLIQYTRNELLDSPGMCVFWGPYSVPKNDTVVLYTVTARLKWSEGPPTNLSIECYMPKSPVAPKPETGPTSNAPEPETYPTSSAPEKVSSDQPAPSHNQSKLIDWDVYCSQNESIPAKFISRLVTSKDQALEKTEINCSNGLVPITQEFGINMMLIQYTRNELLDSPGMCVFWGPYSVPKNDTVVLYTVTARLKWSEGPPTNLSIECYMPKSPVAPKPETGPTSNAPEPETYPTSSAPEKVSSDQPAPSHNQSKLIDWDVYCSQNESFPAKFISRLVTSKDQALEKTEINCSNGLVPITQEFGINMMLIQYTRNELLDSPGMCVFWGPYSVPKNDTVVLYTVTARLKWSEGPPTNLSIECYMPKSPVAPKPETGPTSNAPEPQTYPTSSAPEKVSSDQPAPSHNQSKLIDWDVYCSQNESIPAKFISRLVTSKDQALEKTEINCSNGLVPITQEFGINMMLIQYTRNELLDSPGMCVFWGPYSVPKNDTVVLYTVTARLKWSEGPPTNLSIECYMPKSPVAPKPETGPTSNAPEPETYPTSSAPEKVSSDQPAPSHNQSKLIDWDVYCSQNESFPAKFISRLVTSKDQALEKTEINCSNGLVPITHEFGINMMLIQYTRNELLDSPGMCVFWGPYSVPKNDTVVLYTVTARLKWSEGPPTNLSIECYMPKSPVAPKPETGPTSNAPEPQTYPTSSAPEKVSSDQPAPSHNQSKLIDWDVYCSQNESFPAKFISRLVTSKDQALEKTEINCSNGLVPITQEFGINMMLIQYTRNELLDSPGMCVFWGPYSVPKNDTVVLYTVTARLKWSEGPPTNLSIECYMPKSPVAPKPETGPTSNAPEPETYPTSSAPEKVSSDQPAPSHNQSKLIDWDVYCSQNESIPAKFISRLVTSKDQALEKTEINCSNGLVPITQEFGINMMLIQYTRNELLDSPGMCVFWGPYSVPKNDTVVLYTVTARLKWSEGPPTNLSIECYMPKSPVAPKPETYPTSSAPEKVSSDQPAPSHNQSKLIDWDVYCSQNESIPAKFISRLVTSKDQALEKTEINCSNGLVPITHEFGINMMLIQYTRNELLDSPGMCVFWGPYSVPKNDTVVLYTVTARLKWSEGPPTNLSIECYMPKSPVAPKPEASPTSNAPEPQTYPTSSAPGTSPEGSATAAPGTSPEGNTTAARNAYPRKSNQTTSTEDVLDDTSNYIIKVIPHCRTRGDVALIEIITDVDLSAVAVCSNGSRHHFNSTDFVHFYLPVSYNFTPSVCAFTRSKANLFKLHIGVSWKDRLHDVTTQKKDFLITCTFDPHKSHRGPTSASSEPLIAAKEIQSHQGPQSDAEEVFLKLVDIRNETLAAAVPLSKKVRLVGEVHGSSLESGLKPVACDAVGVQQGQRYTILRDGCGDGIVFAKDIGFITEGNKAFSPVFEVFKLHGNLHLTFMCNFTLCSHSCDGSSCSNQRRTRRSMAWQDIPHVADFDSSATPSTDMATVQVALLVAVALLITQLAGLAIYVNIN

Substance “mMBP-fused VERL-Fb (fragment of vitelline envelope receptor for lysin) (domain or fragment)” has a stoichiometry N of 2.

Reference: paper PMC4771870
